For assay [1], the target named is T1, human CR2 on primary human cells (B cells in PBMCs; tonsil follicular dendritic cells) (human, UniProt P20023 21-1033).
T1 construct: Endogenous CR2 on primary human CD20+ B cells or tonsil FDCs; also called CD21
T1 sequence: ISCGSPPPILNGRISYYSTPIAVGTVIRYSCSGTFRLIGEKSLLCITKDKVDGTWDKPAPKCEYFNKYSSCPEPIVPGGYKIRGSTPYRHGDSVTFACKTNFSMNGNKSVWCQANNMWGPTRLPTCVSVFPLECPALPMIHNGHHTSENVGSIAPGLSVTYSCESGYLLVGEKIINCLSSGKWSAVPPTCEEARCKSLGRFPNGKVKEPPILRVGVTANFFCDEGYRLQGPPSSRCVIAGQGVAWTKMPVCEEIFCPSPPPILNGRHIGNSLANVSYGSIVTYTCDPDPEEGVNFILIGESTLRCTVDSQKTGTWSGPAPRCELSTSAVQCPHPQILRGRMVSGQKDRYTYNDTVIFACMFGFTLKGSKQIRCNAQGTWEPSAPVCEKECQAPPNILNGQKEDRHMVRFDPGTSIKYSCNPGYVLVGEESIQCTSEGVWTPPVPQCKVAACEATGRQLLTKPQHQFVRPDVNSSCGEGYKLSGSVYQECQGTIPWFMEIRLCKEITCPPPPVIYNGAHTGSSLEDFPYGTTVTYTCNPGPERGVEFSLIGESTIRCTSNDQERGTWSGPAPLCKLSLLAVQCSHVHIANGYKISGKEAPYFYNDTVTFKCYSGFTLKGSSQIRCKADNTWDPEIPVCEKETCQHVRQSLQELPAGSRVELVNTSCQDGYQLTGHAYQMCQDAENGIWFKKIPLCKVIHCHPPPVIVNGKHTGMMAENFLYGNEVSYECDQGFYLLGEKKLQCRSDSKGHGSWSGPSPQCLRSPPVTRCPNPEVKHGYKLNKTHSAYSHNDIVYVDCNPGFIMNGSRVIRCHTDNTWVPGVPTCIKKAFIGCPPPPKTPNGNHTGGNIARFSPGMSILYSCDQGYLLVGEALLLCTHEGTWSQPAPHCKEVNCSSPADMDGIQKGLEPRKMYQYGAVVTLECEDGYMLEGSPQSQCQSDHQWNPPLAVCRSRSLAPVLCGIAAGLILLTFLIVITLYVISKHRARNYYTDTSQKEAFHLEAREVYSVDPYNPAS
In words: flow cytometry; inhibition of serum-opsonised PnPS14 binding to CD20+ B cells in human PBMCs, mAb pre-incubated. In general terms: A flow cytometer gives signals particle by particle.

In assay [2] the target is T1, human CR2 on primary human cells (B …). In words: flow cytometry on primary human tonsil FDCs; unlabelled mAb 1053 titrated, then saturating mAb 1053-PE (1 ug/ml).
Assay [3] deals with T2, recombinant soluble human CR2 (human, UniProt P20023 21-971, limits assumed).
T2 construct: it includes the transmembrane and cytoplasmic parts, which a soluble form would lack; also called human CR2 antigen
T2 sequence: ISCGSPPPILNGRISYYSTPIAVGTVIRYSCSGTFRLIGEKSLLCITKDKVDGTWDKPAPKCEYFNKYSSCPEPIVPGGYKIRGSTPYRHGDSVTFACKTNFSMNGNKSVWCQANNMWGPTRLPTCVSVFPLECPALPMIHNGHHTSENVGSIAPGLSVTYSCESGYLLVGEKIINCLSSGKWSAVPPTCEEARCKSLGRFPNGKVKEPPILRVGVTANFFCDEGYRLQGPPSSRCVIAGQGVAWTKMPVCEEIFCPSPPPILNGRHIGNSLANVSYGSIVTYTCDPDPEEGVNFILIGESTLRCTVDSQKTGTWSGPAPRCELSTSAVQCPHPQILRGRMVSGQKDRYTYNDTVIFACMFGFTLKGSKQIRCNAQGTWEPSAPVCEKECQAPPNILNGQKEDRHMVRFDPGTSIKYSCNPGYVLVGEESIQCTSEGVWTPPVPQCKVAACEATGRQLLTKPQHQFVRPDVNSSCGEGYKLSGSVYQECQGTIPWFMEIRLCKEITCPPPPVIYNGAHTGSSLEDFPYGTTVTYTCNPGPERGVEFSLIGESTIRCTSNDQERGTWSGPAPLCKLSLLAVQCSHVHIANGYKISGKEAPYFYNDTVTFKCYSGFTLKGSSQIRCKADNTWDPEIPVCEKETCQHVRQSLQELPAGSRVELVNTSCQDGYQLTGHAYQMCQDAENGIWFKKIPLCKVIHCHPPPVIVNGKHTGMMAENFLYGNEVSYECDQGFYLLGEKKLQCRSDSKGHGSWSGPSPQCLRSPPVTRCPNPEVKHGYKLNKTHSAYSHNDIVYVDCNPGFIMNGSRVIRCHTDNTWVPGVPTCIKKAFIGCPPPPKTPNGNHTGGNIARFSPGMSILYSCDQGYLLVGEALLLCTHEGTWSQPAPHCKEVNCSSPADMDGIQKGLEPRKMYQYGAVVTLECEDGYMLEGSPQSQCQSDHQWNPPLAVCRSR
In words: SPR (BIACORE T200), HEK-expressed antibody captured on Protein A, soluble CR2 as analyte, 25 C, equilibrium model. (In general: Surface plasmon resonance follows binding to a sensor surface in real time, without labels.)

In assay [4] the target is T3, recombinant soluble cynomolgus macaque CR2 (cynomolgus macaque, UniProt A0A2K5URG6 21-972).
T3 construct: also called Cyno CR2; cyno CR2 antigen
T3 sequence: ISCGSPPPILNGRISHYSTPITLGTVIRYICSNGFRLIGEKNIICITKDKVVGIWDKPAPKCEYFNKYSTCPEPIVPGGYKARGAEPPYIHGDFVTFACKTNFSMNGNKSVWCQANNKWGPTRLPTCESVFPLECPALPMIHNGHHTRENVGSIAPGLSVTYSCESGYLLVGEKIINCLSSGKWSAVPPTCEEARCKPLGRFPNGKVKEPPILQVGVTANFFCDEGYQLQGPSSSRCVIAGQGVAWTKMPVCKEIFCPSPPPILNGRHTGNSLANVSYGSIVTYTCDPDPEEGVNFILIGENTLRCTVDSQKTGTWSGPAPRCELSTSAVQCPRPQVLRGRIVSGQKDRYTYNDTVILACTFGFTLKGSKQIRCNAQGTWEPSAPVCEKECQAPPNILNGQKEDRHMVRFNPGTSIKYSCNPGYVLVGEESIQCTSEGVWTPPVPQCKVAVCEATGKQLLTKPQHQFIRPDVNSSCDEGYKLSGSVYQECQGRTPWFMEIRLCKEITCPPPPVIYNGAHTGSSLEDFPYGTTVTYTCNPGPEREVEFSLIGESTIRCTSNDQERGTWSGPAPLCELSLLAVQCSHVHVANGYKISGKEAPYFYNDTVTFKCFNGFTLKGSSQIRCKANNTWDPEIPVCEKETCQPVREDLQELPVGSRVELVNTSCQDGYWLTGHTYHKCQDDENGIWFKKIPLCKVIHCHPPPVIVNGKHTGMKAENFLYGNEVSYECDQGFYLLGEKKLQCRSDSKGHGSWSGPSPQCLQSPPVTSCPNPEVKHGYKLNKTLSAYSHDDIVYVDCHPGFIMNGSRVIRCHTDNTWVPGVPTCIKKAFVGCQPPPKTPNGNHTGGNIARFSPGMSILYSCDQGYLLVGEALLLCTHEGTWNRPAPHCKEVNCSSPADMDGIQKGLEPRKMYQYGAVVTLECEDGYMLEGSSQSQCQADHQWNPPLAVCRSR
Described as above.

For assay [5], the target named is T1, human CR2 on primary human cells (B …). The assay can be described thus: flow cytometry; inhibition of C3dg:Streptavidin-APC complex binding to CD20+ B cells in human PBMCs, mAb pre-incubated.
Assay [6] shares this target. The assay can be described thus: flow cytometry; inhibition of C3dg:streptavidin-APC ligand complex binding to primary human tonsil FDCs, mAb pre-incubated.

The term IC50 denotes the midpoint of a concentration-inhibition curve. Low values mean greater potency in that assay, high ones weaker potency in that assay. A word on the EC50: it is the concentration at which the effect is half-maximal. A lower EC50 goes with a more potent agent. As usually defined, the Kd is the free concentration of one partner at which half of the binding sites on the other are occupied at equilibrium, for simple one-to-one binding.

B1: mAb 1053 (antibody, human IgG1, kappa, V domains shown)
VH: QLQLQESGPGLVKPSETLSLTCTVSGGSISSDSYYWGWIRQPPGKGLEWIGSIHYSGSTYYNPPLESRVTISVDTSKNQFSLKLSSVTAADTAVYYCAREGGPRHGWSWGQGTLVTVSS
VL: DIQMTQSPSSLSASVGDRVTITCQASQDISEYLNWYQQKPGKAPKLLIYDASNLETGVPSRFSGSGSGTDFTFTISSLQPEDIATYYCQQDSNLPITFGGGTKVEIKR
notes: CHO-expressed unless stated otherwise
For the molecule B1, the IC50 in assay [1] was determined as 0.0379 nM; in assay [5] it was 0.0119 nM; in assay [6], 0.047 nM. This molecule displayed an EC50 in assay [2] of 0.0622 nM. In addition, the values for the Kd in assay [3] and in assay [4] were 0.257 nM and 0.287 nM, respectively.
